This assay deals with unfolded precursor form of maltose binding protein (preMBP) (E. coli). As to the kind of experiment: ITC; 120 uM SecB or SecB_(T10A) titrated into 20 uM preMBP; 25 °C; KPB buffer pH 7.4, 100 mM; MicroCal PEAQ-ITC; triplicate. (In ITC the heat of successive injections is recorded.)

What is called Kd is the equilibrium constant for the complex coming apart. Read a high Kd as weaker binding. What is called stoichiometry N is the number of molecules, sites or subunits per partner or assembly. “SecB chaperone, wild type (from UniProt P0AG86 1-153) (natural protein)”: the Kd turned out to be 61.7 µM, the dH is -1.48 kcal/mol and the stoichiometry N worked out at 3.08.

Substance “SecB_(T10A) (from UniProt P0AG86 1-153) (natural protein)” came in with a Kd of 5.2 µM, a dH of -1.99 kcal/mol and a stoichiometry N of 4.99.

(Values after paper PMC6598250.)
